Assays:
[1] = biological target: T1, Anti-CD28 Fab (SEQ ID NOs: 696, 697); assay: phage binding ELISA on captured anti-CD28 Fab; competitor CD28 antigen pre-incubated in the wells
T1 construct: Biotinylated and captured on neutravidin coated plates in the phage ELISA
T1 sequence (VH, as listed by the source, chain 1 of 2): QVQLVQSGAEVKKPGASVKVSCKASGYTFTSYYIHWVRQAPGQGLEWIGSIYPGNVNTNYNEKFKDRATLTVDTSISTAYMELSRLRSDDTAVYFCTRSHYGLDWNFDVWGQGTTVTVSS
T1 sequence (VL, as listed by the source, chain 2 of 2): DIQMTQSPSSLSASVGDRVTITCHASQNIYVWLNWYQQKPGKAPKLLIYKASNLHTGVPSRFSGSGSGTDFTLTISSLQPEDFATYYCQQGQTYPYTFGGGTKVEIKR
Procedure: (§1) Clonal phage were harvested as crude supematants and screened via standard ELISAs. […] Prior to the addition of clonal phage, wells were incubated with blocking buffer and CD28 antigen or blocking buffer alone. Without washing or aspirating, clonal phage supematants were then added to the wells and incubated for a short time. Wells were then washed followed by detection of bound phage using a horse radish conjugated anti-M13 antibody.

[2] = biological target: T1, Anti-CD28 Fab (SEQ ID NOs: 696, 697); assay: phage binding ELISA; clonal phage on biotinylated anti-CD28 Fab captured on neutravidin, anti-M13-HRP detection
Procedure: as §1

[3] = biological target: T2, Anti-CD28 Fab (SEQ ID NOs: 696, 697); assay: phage ELISA; biotinylated anti-CD28 Fab on neutravidin plate, clonal phage supernatant, anti-M13 HRP detection;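 also: before phage addition, wells were pretreated with either CD28 antigen in blocking buffer or only blocking buffer, and phage was added without an intervening wash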
T2 construct: In the phage ELISA the Fab was biotinylated and captured on neutravidin coated plates
T2 sequence (VH, as listed by the source, chain 1 of 2): as the sequence (VH, as listed by the source, chain 1 of 2) above
T2 sequence (VL, as listed by the source, chain 2 of 2): as the sequence (VL, as listed by the source, chain 2 of 2) above
Procedure: as §1

[4] = biological target: T2, Anti-CD28 Fab (SEQ ID NOs: 696, 697); assay: phage ELISA; Fab-coated wells pre-incubated with CD28 antigen as competitor, clonal phage supernatant, anti-M13 HRP detection
Procedure: as §1

[5] = biological target: T3, Anti-CD28 Fab (SEQ ID NOs: 696, 697); assay: phage binding ELISA on plate-captured anti-CD28 Fab pre-incubated with CD28 antigen (competitor: CD28)
T3 construct: In the phage ELISA the Fab was biotinylated and captured on neutravidin coated plates
T3 sequence (VH, as listed by the source, chain 1 of 2): as the sequence (VH, as listed by the source, chain 1 of 2) above
T3 sequence (VL, as listed by the source, chain 2 of 2): as the sequence (VL, as listed by the source, chain 2 of 2) above
Procedure: as §1

[6] = biological target: T3, Anti-CD28 Fab (SEQ ID NOs: 696, 697); assay: phage binding ELISA; clonal phage on plate-captured biotinylated anti-CD28 Fab, anti-M13 HRP detection
Procedure: as §1

[7] = biological target: Anti-CD28 Fab (SEQ ID NOs: 696, 697); assay: phage binding ELISA; anti-CD28 Fab on plate pre-incubated with CD28 antigen as competitor
Target sequence in this assay (VH, as listed by the source, chain 1 of 2): as the sequence (VH, as listed by the source, chain 1 of 2) above
Target sequence in this assay (VL, as listed by the source, chain 2 of 2): as the sequence (VL, as listed by the source, chain 2 of 2) above
Procedure: as §1

[8] = biological target: Anti-CD28 Fab (SEQ ID NOs: 696, 697); assay: phage binding ELISA; biotinylated anti-CD28 Fab on neutravidin plate, clonal phage detected with anti-M13 HRP
Target sequence in this assay (VH, as listed by the source, chain 1 of 2): as the sequence (VH, as listed by the source, chain 1 of 2) above
Target sequence in this assay (VL, as listed by the source, chain 2 of 2): as the sequence (VL, as listed by the source, chain 2 of 2) above
Procedure: as §1

Binder | Anti-CD28 Fab signal in the presence of CD28 [1] | Anti-CD28 Fab (SEQ ID NOs: 696, 697) signal [2] | Phage binding ELISA, Anti-CD28 Fab signal [3] | Phage binding ELISA, Anti-CD28 Fab signal in the presence of CD28 [4] | also measured
GCAAGANYPWPLCL (peptide, not shown: large carriers) [Phage-1516] | 0.05 | 1.59 | – | – | –
SCAAGATYTWPMCI (Tested as clonal phage supernatant; not shown: fused to pIII of the bacteriophage) [Phage-1501 (Peptide-92 library clone, SEQ ID NO: 1797)] | – | – | 1.66 | 0.07 | –
SCAAGAQYGWPMCL [Phage-1523 (Peptide-92 library sequence, SEQ ID NO: 1819)] | – | – | – | – | Anti-CD28 Fab signal in the presence of CD28 [5]: 0.05; Anti-CD28 Fab (SEQ ID NOs: 696, 697) signal [6]: 1.59
TCAAGAMWVWPTCL (Tested as clonal phage supernatant; not shown: fused to pIII of the bacteriophage) [Phage-1499 (Peptide-92 library clone, SEQ ID NO: 1795)] | – | – | 1.66 | 0.07 | –
LCSAGATYPWPWCM (peptide, not shown: large carriers) [Phage-1505] | 0.06 | 1.64 | – | – | –
TCSAGAHWTWPLCF (Tested as clonal phage supernatant; not shown: fused to pIII of the bacteriophage) [Phage-1491 (Peptide-92 library clone, SEQ ID NO: 1787)] | – | – | 1.69 | 0.06 | –
MCSAGATYPWPYCL (peptide, not shown: large carriers) [Phage-1504] | 0.1 | 1.64 | – | – | –
TCAAGAHYEWPMCY (peptide, not shown: large carriers) [Phage-1510] | 0.12 | 1.61 | – | – | –
TCAAGAYYAWPMCL (peptide, not shown: large carriers) [Phage-1517] | 0.07 | 1.59 | – | – | –
GCAAGAHYPWPFCL [Phage-1472 peptide (Peptide-92 library, SEQ ID NO: 1768)] | – | – | – | – | Anti-CD28 Fab signal in the presence of CD28 [7]: 0.06; Anti-CD28 Fab (SEQ ID NOs: 696, 697) signal [8]: 1.76
WCTAGFSYKLSICL (peptide, not shown: large carriers) [Phage-1507] | 0.06 | 1.63 | – | – | –
LCSAGAMYPWPLCY (Tested as clonal phage supernatant; not shown: fused to pIII of the bacteriophage) [Phage-1498 (Peptide-92 library clone, SEQ ID NO: 1794)] | – | – | 1.66 | 0.08 | –
TCSAGANYEWPWCF (peptide, not shown: large carriers) [Phage-1509] | 0.06 | 1.62 | – | – | –
LCTAGLAYNWPTCL [Phage-1471 peptide (Peptide-92 library, SEQ ID NO: 1767)] | – | – | – | – | Anti-CD28 Fab signal in the presence of CD28 [7]: 0.05; Anti-CD28 Fab (SEQ ID NOs: 696, 697) signal [8]: 1.77
TCTAVFPYEWPRCL [Phage-1525 (Peptide-92 library sequence, SEQ ID NO: 1821)] | – | – | – | – | Anti-CD28 Fab signal in the presence of CD28 [5]: 0.07; Anti-CD28 Fab (SEQ ID NOs: 696, 697) signal [6]: 1.57
LCNAGAPYKWPTCL (Tested as clonal phage supernatant; not shown: fused to pIII of the bacteriophage) [Phage-1497 (Peptide-92 library clone, SEQ ID NO: 1793)] | – | – | 1.66 | 0.07 | –
RCAAGVMYDWPVCL (Tested as clonal phage supernatant; not shown: fused to pIII of the bacteriophage) [Phage-1490 (Peptide-92 library clone, SEQ ID NO: 1786)] | – | – | 1.7 | 0.07 | –
SCAAGAHYVWPFCF (Tested as clonal phage supernatant; not shown: fused to pIII of the bacteriophage) [Phage-1493 (Peptide-92 library clone, SEQ ID NO: 1789)] | – | – | 1.68 | 0.08 | –
SCAAGLSYPWPDCL (Tested as clonal phage supernatant; not shown: fused to pIII of the bacteriophage) [Phage-1502 (Peptide-92 library clone, SEQ ID NO: 1798)] | – | – | 1.65 | 0.07 | –
SCAAGATYEWPRCL (peptide, not shown: large carriers) [Phage-1515] | 0.07 | 1.6 | – | – | –

Binder | Anti-CD28 Fab signal in the presence of CD28 [1] | Anti-CD28 Fab (SEQ ID NOs: 696, 697) signal [2] | Phage binding ELISA, Anti-CD28 Fab signal [3] | Phage binding ELISA, Anti-CD28 Fab signal in the presence of CD28 [4] | also measured
TCAAGAGWQWPMCF (peptide, not shown: large carriers) [Phage-1514] | 0.11 | 1.6 | – | – | –
TCAAGATWPWPSCL (peptide, not shown: large carriers) [Phage-1512] | 0.08 | 1.61 | – | – | –
TCAAGANYPWPLCL [Phage-1474 peptide (Peptide-92 library, SEQ ID NO: 1770)] | – | – | – | – | Anti-CD28 Fab signal in the presence of CD28 [7]: 0.08; Anti-CD28 Fab (SEQ ID NOs: 696, 697) signal [8]: 1.75
TCAAGAGWAWPFCF (Tested as clonal phage supernatant; not shown: fused to pIII of the bacteriophage) [Phage-1503 (Peptide-92 library clone, SEQ ID NO: 1799)] | – | – | 1.65 | 0.09 | –
DCWGDAPYPWRVCL (peptide, not shown: large carriers) [Phage-1506] | 0.07 | 1.64 | – | – | –
WCAAGAMYPWPLCL (Tested as clonal phage supernatant; not shown: fused to pIII of the bacteriophage) [Phage-1496 (Peptide-92 library clone, SEQ ID NO: 1792)] | – | – | 1.67 | 0.06 | –
TCSAGASYPWPVCL (Tested as clonal phage supernatant; not shown: fused to pIII of the bacteriophage) [Phage-1495 (Peptide-92 library clone, SEQ ID NO: 1791)] | – | – | 1.67 | 0.07 | –
TCSAGATYNWPWCF (Tested as clonal phage supernatant; not shown: fused to pIII of the bacteriophage) [Phage-1494 (Peptide-92 library clone, SEQ ID NO: 1790)] | – | – | 1.68 | 0.05 | –
TCSAGAAYAWPYCL [Phage-1519 (Peptide-92 library sequence, SEQ ID NO: 1815)] | – | – | – | – | Anti-CD28 Fab signal in the presence of CD28 [5]: 0.07; Anti-CD28 Fab (SEQ ID NOs: 696, 697) signal [6]: 1.59
SCAAGAPYPWPECL [Phage-1518 (Peptide-92 library sequence, SEQ ID NO: 1814)] | – | – | – | – | Anti-CD28 Fab signal in the presence of CD28 [5]: 0.07; Anti-CD28 Fab (SEQ ID NOs: 696, 697) signal [6]: 1.59
TCSAGAHFAWPMCF (Tested as clonal phage supernatant; not shown: fused to pIII of the bacteriophage) [Phage-1492 (Peptide-92 library clone, SEQ ID NO: 1788)] | – | – | 1.69 | 0.07 | –
SCSAVFSYAWPTCL (peptide, not shown: large carriers) [Phage-1511] | 0.08 | 1.61 | – | – | –
LCSAGAMYQWPTCL (peptide, not shown: large carriers) [Phage-1508] | 0.06 | 1.63 | – | – | –
LCAAGANYPWPACL (Tested as clonal phage supernatant; not shown: fused to pIII of the bacteriophage) [Phage-1500 (Peptide-92 library clone, SEQ ID NO: 1796)] | – | – | 1.66 | 0.07 | –
SCAAGATYEWPICL [Phage-1521 (Peptide-92 library sequence, SEQ ID NO: 1817)] | – | – | – | – | Anti-CD28 Fab signal in the presence of CD28 [5]: 0.05; Anti-CD28 Fab (SEQ ID NOs: 696, 697) signal [6]: 1.59
SCAAGAMWPWPVCV [Phage-1522 (Peptide-92 library sequence, SEQ ID NO: 1818)] | – | – | – | – | Anti-CD28 Fab signal in the presence of CD28 [5]: 0.07; Anti-CD28 Fab (SEQ ID NOs: 696, 697) signal [6]: 1.59
WCAAGASYPWPWCL [Phage-1524 (Peptide-92 library sequence, SEQ ID NO: 1820)] | – | – | – | – | Anti-CD28 Fab signal in the presence of CD28 [5]: 0.05; Anti-CD28 Fab (SEQ ID NOs: 696, 697) signal [6]: 1.58
LCAAGAAYPWPMCL [Phage-1520 (Peptide-92 library sequence, SEQ ID NO: 1816)] | – | – | – | – | Anti-CD28 Fab signal in the presence of CD28 [5]: 0.06; Anti-CD28 Fab (SEQ ID NOs: 696, 697) signal [6]: 1.59
TCAAGAHWIWPWCE (peptide, not shown: large carriers) [Phage-1513] | 0.07 | 1.61 | – | – | –
TCAAGAVWEWPMCF [Phage-1473 peptide (Peptide-92 library, SEQ ID NO: 1769)] | – | – | – | – | Anti-CD28 Fab signal in the presence of CD28 [7]: 0.07; Anti-CD28 Fab (SEQ ID NOs: 696, 697) signal [8]: 1.76

Source: patent US20260242478A1 (published 2026)
